Laboratory results from paper PMC3715500.

Target: Rac-GFP (UniProt P63000)
Assay: FRET or BRET; FLIM-FRET (donor lifetime, time-gated fast-FLIM prototype, five gates of 2.25 ns, up to 1 FLIM image per s) in living 3T3 cells co-transfected with donor Rac-GFP and acceptor PBD-mCherry or mCherry alone; analysed by mfD, polar approach and moments method

PBD-mCherry (domain or fragment), sequence (Q13153 2-545): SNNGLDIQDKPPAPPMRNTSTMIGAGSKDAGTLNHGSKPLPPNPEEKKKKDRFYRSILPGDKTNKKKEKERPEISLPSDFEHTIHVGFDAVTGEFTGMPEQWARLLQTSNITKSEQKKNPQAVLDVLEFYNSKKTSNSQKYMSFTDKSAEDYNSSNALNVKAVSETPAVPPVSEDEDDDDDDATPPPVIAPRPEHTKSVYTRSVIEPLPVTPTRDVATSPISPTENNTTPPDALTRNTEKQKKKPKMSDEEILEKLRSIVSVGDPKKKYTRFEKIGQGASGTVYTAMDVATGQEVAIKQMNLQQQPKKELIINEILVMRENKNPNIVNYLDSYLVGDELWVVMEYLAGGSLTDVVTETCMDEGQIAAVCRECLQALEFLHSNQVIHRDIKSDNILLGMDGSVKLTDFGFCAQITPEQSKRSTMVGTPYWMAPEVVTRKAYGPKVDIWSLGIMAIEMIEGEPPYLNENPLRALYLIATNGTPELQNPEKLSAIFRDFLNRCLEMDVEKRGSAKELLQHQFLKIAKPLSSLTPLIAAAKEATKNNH

PBD-mCherry (domain or fragment) showed a mean donor lifetime <τ> (population of cells, n = 10) of 2.37 ns, a mean donor lifetime <τ> (single cell, corrected) of 2.21 and a minimal fraction of interacting donor mfD (representative cell) of 0.19. The non-corrected average donor lifetime (representative cell) was 2.3 ns.
